Results taken from US20240174744A1 (SCIRHOM, published 2024).
Residue numbers refer to the chain shown, from its start.

T1: hiR2-FL-P533-T7 (human iRhom2 full length with deletion of P533, 3 x T7 tag) (human, UniProt Q6PJF5 1-856)
T1 construct: The change is a deletion of one residue, not a substitution
T1 sequence: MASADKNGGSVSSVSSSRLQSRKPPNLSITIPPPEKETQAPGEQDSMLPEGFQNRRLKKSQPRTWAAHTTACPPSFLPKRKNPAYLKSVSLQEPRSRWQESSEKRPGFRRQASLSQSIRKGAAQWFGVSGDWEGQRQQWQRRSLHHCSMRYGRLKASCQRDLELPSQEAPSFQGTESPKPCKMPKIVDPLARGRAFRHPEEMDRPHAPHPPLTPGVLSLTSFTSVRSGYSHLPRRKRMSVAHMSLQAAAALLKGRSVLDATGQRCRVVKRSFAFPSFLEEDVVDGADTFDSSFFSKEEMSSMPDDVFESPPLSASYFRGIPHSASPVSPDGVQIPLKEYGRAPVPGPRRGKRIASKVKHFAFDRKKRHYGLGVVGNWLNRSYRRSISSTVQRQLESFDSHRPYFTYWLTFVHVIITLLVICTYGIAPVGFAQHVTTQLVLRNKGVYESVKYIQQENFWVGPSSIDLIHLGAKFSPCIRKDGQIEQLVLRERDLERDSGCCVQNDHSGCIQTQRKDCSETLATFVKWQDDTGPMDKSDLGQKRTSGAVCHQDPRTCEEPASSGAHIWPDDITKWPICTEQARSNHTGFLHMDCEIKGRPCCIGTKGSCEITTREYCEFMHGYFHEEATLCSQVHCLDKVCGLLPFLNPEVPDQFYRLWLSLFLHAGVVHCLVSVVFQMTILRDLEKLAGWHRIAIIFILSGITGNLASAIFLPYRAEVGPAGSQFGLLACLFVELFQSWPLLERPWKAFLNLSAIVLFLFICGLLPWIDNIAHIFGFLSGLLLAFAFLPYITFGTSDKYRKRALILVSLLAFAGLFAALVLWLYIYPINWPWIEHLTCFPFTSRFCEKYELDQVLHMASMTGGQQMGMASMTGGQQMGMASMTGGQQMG

T2: human iRhom1, endogenously expressed on RH-30 cells (human, UniProt Q96CC6 1-855)
T2 construct: RH-30 cells are described as endogenously negative for iRhom2 but endogenously expressing iRhom1; also called NP_071895.3
T2 sequence: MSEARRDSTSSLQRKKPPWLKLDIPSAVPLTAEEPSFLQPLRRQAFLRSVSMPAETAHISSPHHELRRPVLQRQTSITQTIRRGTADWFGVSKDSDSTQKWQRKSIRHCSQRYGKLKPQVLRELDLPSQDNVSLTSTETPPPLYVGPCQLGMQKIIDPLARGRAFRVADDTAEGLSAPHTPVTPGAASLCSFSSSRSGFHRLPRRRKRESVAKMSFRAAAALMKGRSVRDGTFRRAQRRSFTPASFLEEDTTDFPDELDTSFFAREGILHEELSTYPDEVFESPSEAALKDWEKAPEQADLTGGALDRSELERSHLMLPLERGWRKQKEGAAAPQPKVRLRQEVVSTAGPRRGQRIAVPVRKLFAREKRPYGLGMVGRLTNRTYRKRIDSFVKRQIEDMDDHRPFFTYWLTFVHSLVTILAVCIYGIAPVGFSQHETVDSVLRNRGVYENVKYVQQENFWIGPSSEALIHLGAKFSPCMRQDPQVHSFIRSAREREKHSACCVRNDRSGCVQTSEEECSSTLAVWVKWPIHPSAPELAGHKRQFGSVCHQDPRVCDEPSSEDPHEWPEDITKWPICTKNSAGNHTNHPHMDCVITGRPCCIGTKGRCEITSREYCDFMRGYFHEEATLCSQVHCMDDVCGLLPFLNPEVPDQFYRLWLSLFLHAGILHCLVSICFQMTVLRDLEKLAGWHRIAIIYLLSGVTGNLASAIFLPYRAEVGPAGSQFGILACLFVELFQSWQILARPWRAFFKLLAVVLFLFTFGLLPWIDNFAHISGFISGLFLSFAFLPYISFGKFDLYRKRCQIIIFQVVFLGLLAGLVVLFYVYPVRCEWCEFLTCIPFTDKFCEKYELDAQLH

B1: antibody 3 (antibody, V domains shown)
VH: QVTLKESGPGILQPSQTLSLTCSFSGFSLTTFAMGIGWVRQPSGKGLEWLAHIWWDGEKYNNPVLKSRLTISKDTSKNQVFLRIANVDTPDTATYYCARISSIYYIIDNWGQGTSVTVSS
VL: DIVLTQSPATLSVTPGHSVSLSCRASQSISNNLHWYQKKSHESPRLLIKYVSQSISGIPSRFSGSGSGTDFTLSINSVETEDFGMYFCQQSYNWPLTFGAGTKLELK
notes: Mouse IgG, kappa light chain; also called clone #3; purified antibody 3
B2: antibody 22 (antibody, V domains shown)
VH: QVTLKESGPGILQPSQTLSLTCSFSGFSLSTFGMGVGWIRQPSGKGLEWLAHIWWDDEKYYNSALKSRLTISKATSKNQVFLKIANVDTADTATYYCARISNYGSNYWYFNVWGTGTTVTVSS
VL: QVVLTQSPALMSASPGEKVTMTCSAGSSVSYMYWYQQKPGSSPRVLIYDTSNLASGVPARFTGSGSGTSYSLTISRMEAEDAATYYCQQWNSYPLTFGAGTKLELK
notes: Mouse IgG, kappa light chain; also called clone #22; m22
B3: antibody 42 (antibody, V domains shown)
VH: B2 VH with F24L, M34R, S63P, A74D, K83R, S101Q, N111D
VL: LIVLTQSPAIMSASPGEKVTMTCGATSRISYMFWYQQKPGSSPRVLIYDTSNLASGVPVRFSGSGSGTSYSLTISRVEAEDVATYYCQQWNSYPLTFGAGTKLELK
notes: Mouse IgG, kappa light chain; also called clone #42; m42

Columns and labels:
[1] = target: T1, hiR2-FL-P533-T7 (human iRhom2 full …); test: FACS on MEF-DKO-hiR2-FL-P533- -T7 cells
[2] = target: T2, human iRhom1, endogenously expressed on …; test: FACS, RH-30 cells (endogenous iRhom1, no iRhom2)
Description: In brief, human RPMI-8226 cells (Deutsche Sammlung von Mikroorganismen und Zellkulturen, Germany), THP-1 cells (American Type Culture Collection, USA) and RH-30 cells (Deutsche Sammlung von Mikroorganismen und Zellkulturen, Germany) were harvested with 10 mM EDTA in PBS, washed and resuspended in FACS buffer (PBS, 3% FBS, 0.05% sodium azide), and seeded in Nunc U-bottom 96-well plates (Thermo Fisher Scientific, USA) at approximately 2×10⁵ cells per well. In order to pellet cells and remove supernatants, the plates were centrifuged at 1,500 rpm and 4° C. for 3 minutes. For primary staining, cells were resuspended in 100 μl per well of either FACS buffer alone (controls), a 1:60 dilution of the hybridoma supernatant, the primary material leading to the antibodies 3, 16, 22 and 42 of the present disclosure in FACS buffer or 3 μg/ml of the antibodies 16, 22 and 42 of the present disclosure in FACS buffer and incubated on ice for 1 hour. Afterwards, plates were centrifuged at 1,500 rpm and 4° C. for 3 minutes and washed twice with 200 μl per well of FACS buffer. […] Finally, cells were resuspended in 150 μl per well of FACS buffer and analyzed using a BD Accuri™ C6 Plus flow cytometer (Becton Dickinson, Germany).

Binder	binding result [1]	binding result [2]
B1	no binding (tested: 3 µg/ml)	
B2		no binding (tested: 3 µg/ml)
B3		no binding (tested: 3 µg/ml)
